Experimental data reported in PMC3718333.

Target: recombinant MHJ_0125 (polyhistidine fusion of the M42 glutamyl aminopeptidase MHJ_0125 of Mycoplasma hyopneumoniae) (Mycoplasma hyopneumoniae (strain J))
Test: SEC; 10 µg purified rMHJ_0125 on Superdex 200 (3.2 x 300 mm), 20 mM Tris-HCl pH 8.0, 50 µl/min; markers blue dextran, apoferritin, myoglobin

Substance “recombinant MHJ_0125 (polyhistidine fusion of the M42 glutamyl aminopeptidase MHJ_0125 of Mycoplasma hyopneumoniae) (enzyme)” has a stoichiometry N of 12.
